Data taken from patent publication US20250134683A1, “MICRO-NANO MEDICAL STENT FOR DIRECTIONAL, QUANTITATIVE AND TIMED RELEASE OF DRUG AND PREPARATION METHOD THEREOF” (GUANGDONG UNIVERSITY OF TECHNOLOGY, priority 2023, published 2025).

Experiment: sequential release of drugs from core-shell nano-disordered electrospun fiber structure
Assay type: physicochemical
Conditions: composite electrospun layer of Example 1; roxithromycin in shell layer fiber, human epidermal growth factor in core layer fiber
Text: Moreover, the transmission electron microscopic image of the core-shell nano-disordered electrospun fiber structure in the composite electrospun layer prepared in Example 1 is shown in FIG. 3. […] The coaxial electrospinning realizes the sequential and timed release of the two drugs in the same electrospun layer. Further, the electrospun layer can be prepared by triaxial electrospinning or multiaxial electrospinning process, which has a core-shell structure of three core layers or multi-core layers, thereby achieving the sequential and timed release of three or more drugs in the same electrospun layer.

B1: human epidermal growth factor: growth factor gel loaded in PVA core layer fiber (protein, UniProt P01133 23-1207, looked up)
Pro-epidermal growth factor: PQHWSCPEGTLAGNGNSTCVGPAPFLIFSHGNSIFRIDTEGTNYEQLVVDAGVSVIMDFHYNEKRIYWVDLERQLLQRVFLNGSRQERVCNIEKNVSGMAINWINEEVIWSNQQEGIITVTDMKGNNSHILLSALKYPANVAVDPVERFIFWSSEVAGSLYRADLDGVGVKALLETSEKITAVSLDVLDKRLFWIQYNREGSNSLICSCDYDGGSVHISKHPTQHNLFAMSLFGDRIFYSTWKMKTIWIANKHTGKDMVRINLHSSFVPLGELKVVHPLAQPKAEDDTWEPEQKLCKLRKGNCSSTVCGQDLQSHLCMCAEGYALSRDRKYCEDVNECAFWNHGCTLGCKNTPGSYYCTCPVGFVLLPDGKRCHQLVSCPRNVSECSHDCVLTSEGPLCFCPEGSVLERDGKTCSGCSSPDNGGCSQLCVPLSPVSWECDCFPGYDLQLDEKSCAASGPQPFLLFANSQDIRHMHFDGTDYGTLLSQQMGMVYALDHDPVENKIYFAHTALKWIERANMDGSQRERLIEEGVDVPEGLAVDWIGRRFYWTDRGKSLIGRSDLNGKRSKIITKENISQPRGIAVHPMAKRLFWTDTGINPRIESSSLQGLGRLVIASSDLIWPSGITIDFLTDKLYWCDAKQSVIEMANLDGSKRRRLTQNDVGHPFAVAVFEDYVWFSDWAMPSVMRVNKRTGKDRVRLQGSMLKPSSLVVVHPLAKPGADPCLYQNGGCEHICKKRLGTAWCSCREGFMKASDGKTCLALDGHQLLAGGEVDLKNQVTPLDILSKTRVSEDNITESQHMLVAEIMVSDQDDCAPVGCSMYARCISEGEDATCQCLKGFAGDGKLCSDIDECEMGVPVCPPASSKCINTEGGYVCRCSEGYQGDGIHCLDIDECQLGEHSCGENASCTNTEGGYTCMCAGRLSEPGLICPDSTPPPHLREDDHHYSVRNSDSECPLSHDGYCLHDGVCMYIEALDKYACNCVVGYIGERCQYRDLKWWELRHAGHGQQQKVIVVAVCVVVLVMLLLLSLWGAHYYRTQKLLSKNPKNPYEESSRDVRSRRPADTEDGMSSCPQPWFVVIKEHQDLKNGGQPVAGEDGQAADGSMQPTSWRQEPQLCGMGTEQGCWIPVSSDKGSCPQVMERSFHMPSYGTQTLEGGVEKPHSLLSANPLWQQRALDPPHQMELTQ
modifications: Pro-epidermal growth factor
notes: growth factor gel loaded in PVA core layer fiber
- order of drug release from core-shell fiber: subsequently released
